Source: PMC5207153, “Differential Receptor Binding and Regulatory Mechanisms for the Lymphangiogenic Growth Factors Vascular Endothelial Growth Factor (VEGF)-C and -D*^([image sbox.jpg])” (The Journal of Biological Chemistry, 2016)

Legend:
[1] = target: T1, Recombinant human VEGFR-3-Fc chimera (human, UniProt P35916 25-775)
T1 construct: human VEGFR-3 part of the bought Fc chimera; source: bought: R&D Systems
T1 sequence (looked up): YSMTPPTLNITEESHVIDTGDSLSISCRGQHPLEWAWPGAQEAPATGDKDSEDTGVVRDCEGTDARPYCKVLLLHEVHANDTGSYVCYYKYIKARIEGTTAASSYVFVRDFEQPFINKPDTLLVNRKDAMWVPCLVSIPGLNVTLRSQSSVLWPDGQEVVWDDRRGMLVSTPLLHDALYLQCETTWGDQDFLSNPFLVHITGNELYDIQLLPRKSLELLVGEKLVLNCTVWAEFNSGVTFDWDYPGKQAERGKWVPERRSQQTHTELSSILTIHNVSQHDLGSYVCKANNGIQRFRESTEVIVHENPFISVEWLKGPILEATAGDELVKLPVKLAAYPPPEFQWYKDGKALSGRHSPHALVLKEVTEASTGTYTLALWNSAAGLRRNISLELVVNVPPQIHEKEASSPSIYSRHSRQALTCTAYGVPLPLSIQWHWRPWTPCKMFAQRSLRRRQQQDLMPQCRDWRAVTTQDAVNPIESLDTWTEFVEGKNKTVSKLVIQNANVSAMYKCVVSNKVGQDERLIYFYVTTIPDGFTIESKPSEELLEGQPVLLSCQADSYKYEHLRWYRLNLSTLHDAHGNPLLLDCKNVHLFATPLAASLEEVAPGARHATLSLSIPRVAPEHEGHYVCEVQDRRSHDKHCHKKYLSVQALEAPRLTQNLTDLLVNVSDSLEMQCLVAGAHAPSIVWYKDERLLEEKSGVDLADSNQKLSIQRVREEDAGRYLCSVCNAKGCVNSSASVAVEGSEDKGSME

[2] = target: T2, Recombinant human VEGFR-2-Fc chimera (human, UniProt P35968 20-764); assay: ELISA; plates coated with human VEGFR-2- or VEGFR-3-Fc chimera at 0.5 μg/ml in 100 mM carbonate buffer pH 9.5; blocked with 1% BSA in PBS, 0.1% Tween 20; 20 ng purified FLAG-tagged ligand in 100 μl PBS, 1 h, room temperature; bound ligand detected with M2-HRP; result as percent of VEGF-DΔNΔC; conditions: both partners purified
T2 construct: human VEGFR-2 part of the bought Fc chimera; source: bought: R&D Systems
T2 sequence (P35968 20-764, stated change not applied): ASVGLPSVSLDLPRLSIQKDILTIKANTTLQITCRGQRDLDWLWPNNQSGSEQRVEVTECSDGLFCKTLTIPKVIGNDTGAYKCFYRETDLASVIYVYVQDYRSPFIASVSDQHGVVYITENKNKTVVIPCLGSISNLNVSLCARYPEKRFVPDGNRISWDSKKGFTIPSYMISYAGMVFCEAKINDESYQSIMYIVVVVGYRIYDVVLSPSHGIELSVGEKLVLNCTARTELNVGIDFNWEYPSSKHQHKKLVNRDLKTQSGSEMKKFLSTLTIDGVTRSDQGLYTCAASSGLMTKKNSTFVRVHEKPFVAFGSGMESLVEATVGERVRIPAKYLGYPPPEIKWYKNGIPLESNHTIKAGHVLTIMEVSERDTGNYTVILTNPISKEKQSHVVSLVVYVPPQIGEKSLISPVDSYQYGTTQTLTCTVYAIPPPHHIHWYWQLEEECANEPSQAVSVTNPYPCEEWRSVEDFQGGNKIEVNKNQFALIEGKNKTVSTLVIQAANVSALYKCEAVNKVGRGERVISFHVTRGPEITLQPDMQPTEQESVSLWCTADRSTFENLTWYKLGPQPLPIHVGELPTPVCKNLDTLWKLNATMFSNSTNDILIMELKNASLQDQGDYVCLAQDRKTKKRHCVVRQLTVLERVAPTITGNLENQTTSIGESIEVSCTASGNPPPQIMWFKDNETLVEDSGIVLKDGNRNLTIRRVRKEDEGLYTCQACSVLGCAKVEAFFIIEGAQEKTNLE

[3] = target: T1, Recombinant human VEGFR-3-Fc chimera; assay: as above; conditions: both partners purified

Molecule: VEGF-CΔNΔC (from UniProt P49767 102-229) (ligand)
- titration of ligand in the bioassay of VEGFR-3 binding and cross-linking; potency relative to VEGF-DΔNΔC (Fig. 6C) [1]: 10 fold

B1: VEGF-DΔNΔC (ligand, human, UniProt O43915 93-201, looked up)
chain: FYDIETLKVIDEEWQRTQCSPRETCVEVASELGKSTNTFFKPPCVNVFRCGGCCNEESLICMNTSTSYISKQLFEISVPLTSVPELVPVKVANHTGCKCLPTAPRHPYS
notes: human VEGF-D, residues 93-201 (recombinant form of mature VEGF-D); also called mature human VEGF-D; source: 293-F cells, transiently transfected; purified from conditioned medium on M2 (anti-FLAG) gel; not shown: FLAG, N-terminal, kept
- binding result [2]: binds
- binding result [3]: binds

B2: VEGF-DΔNΔC D95A (ligand, human, UniProt O43915 93-201, looked up)
chain: FYAIETLKVIDEEWQRTQCSPRETCVEVASELGKSTNTFFKPPCVNVFRCGGCCNEESLICMNTSTSYISKQLFEISVPLTSVPELVPVKVANHTGCKCLPTAPRHPYS
notes: human VEGF-D, residues 93-201, Asp95 to alanine; source: 293-F cells, transiently transfected; purified from conditioned medium on M2 (anti-FLAG) gel; not shown: FLAG, N-terminal, kept
- binding result [2]: binds

B3: VEGF-DΔNΔC D103A (ligand, human, UniProt O43915 93-201, looked up)
chain: FYDIETLKVIAEEWQRTQCSPRETCVEVASELGKSTNTFFKPPCVNVFRCGGCCNEESLICMNTSTSYISKQLFEISVPLTSVPELVPVKVANHTGCKCLPTAPRHPYS
notes: human VEGF-D, residues 93-201, D103A; source: 293-F cells, transiently transfected; purified from conditioned medium on M2 (anti-FLAG) gel; not shown: FLAG, N-terminal, kept
- binding result [2]: binds
- binding result [3]: binds

B4: VEGF-DΔNΔC E97A (ligand, human, UniProt O43915 93-201, looked up)
chain: FYDIATLKVIDEEWQRTQCSPRETCVEVASELGKSTNTFFKPPCVNVFRCGGCCNEESLICMNTSTSYISKQLFEISVPLTSVPELVPVKVANHTGCKCLPTAPRHPYS
notes: human VEGF-D, residues 93-201, Glu97 to alanine; source: 293-F cells, transiently transfected; purified from conditioned medium on M2 (anti-FLAG) gel; not shown: FLAG, N-terminal, kept
- binding result [2]: binds

B5: VEGF-DΔNΔC E105A (ligand, human, UniProt O43915 93-201, looked up)
chain: FYDIETLKVIDEAWQRTQCSPRETCVEVASELGKSTNTFFKPPCVNVFRCGGCCNEESLICMNTSTSYISKQLFEISVPLTSVPELVPVKVANHTGCKCLPTAPRHPYS
notes: human VEGF-D, residues 93-201, E105A; source: 293-F cells, transiently transfected; purified from conditioned medium on M2 (anti-FLAG) gel; not shown: FLAG, N-terminal, kept
- binding result [2]: binds
- binding result [3]: binds

B6: VEGF-DΔNΔC F93A (ligand, human, UniProt O43915 93-201, looked up)
chain: AYDIETLKVIDEEWQRTQCSPRETCVEVASELGKSTNTFFKPPCVNVFRCGGCCNEESLICMNTSTSYISKQLFEISVPLTSVPELVPVKVANHTGCKCLPTAPRHPYS
notes: human VEGF-D, residues 93-201, Phe93 to alanine; source: 293-F cells, transiently transfected; purified from conditioned medium on M2 (anti-FLAG) gel; not shown: FLAG, N-terminal, kept
- binding result [2]: binds

B7: VEGF-DΔNΔC I96A (ligand, human, UniProt O43915 93-201, looked up)
chain: FYDAETLKVIDEEWQRTQCSPRETCVEVASELGKSTNTFFKPPCVNVFRCGGCCNEESLICMNTSTSYISKQLFEISVPLTSVPELVPVKVANHTGCKCLPTAPRHPYS
notes: human VEGF-D, residues 93-201, residue 96 (Ile) to alanine; source: 293-F cells, transiently transfected; purified from conditioned medium on M2 (anti-FLAG) gel; not shown: FLAG, N-terminal, kept
- binding result [2]: binds

B8: VEGF-DΔNΔC I102A (ligand, human, UniProt O43915 93-201, looked up)
chain: FYDIETLKVADEEWQRTQCSPRETCVEVASELGKSTNTFFKPPCVNVFRCGGCCNEESLICMNTSTSYISKQLFEISVPLTSVPELVPVKVANHTGCKCLPTAPRHPYS
notes: human VEGF-D, residues 93-201, I102A; source: 293-F cells, transiently transfected; purified from conditioned medium on M2 (anti-FLAG) gel; not shown: FLAG, N-terminal, kept
- binding result [2]: binds
- binding result [3]: binds

B9: VEGF-DΔNΔC L99A (ligand, human, UniProt O43915 93-201, looked up)
chain: FYDIETAKVIDEEWQRTQCSPRETCVEVASELGKSTNTFFKPPCVNVFRCGGCCNEESLICMNTSTSYISKQLFEISVPLTSVPELVPVKVANHTGCKCLPTAPRHPYS
notes: human VEGF-D, residues 93-201, L99A; source: 293-F cells, transiently transfected; purified from conditioned medium on M2 (anti-FLAG) gel; not shown: FLAG, N-terminal, kept
- binding result [2]: binds

B10: VEGF-DΔNΔC T98A (ligand, human, UniProt O43915 93-201, looked up)
chain: FYDIEALKVIDEEWQRTQCSPRETCVEVASELGKSTNTFFKPPCVNVFRCGGCCNEESLICMNTSTSYISKQLFEISVPLTSVPELVPVKVANHTGCKCLPTAPRHPYS
notes: human VEGF-D, residues 93-201, Thr98 to alanine; source: 293-F cells, transiently transfected; purified from conditioned medium on M2 (anti-FLAG) gel; not shown: FLAG, N-terminal, kept
- binding result [2]: binds

B11: VEGF-DΔNΔC W106A (ligand, human, UniProt O43915 93-201, looked up)
chain: FYDIETLKVIDEEAQRTQCSPRETCVEVASELGKSTNTFFKPPCVNVFRCGGCCNEESLICMNTSTSYISKQLFEISVPLTSVPELVPVKVANHTGCKCLPTAPRHPYS
notes: human VEGF-D, residues 93-201, W106A; source: 293-F cells, transiently transfected; purified from conditioned medium on M2 (anti-FLAG) gel; not shown: FLAG, N-terminal, kept
- binding result [2]: binds
- binding result [3]: binds

B12: VEGF-DΔNΔC Y94A (ligand, human, UniProt O43915 93-201, looked up)
chain: FADIETLKVIDEEWQRTQCSPRETCVEVASELGKSTNTFFKPPCVNVFRCGGCCNEESLICMNTSTSYISKQLFEISVPLTSVPELVPVKVANHTGCKCLPTAPRHPYS
notes: human VEGF-D, residues 93-201, Y94A; source: 293-F cells, transiently transfected; purified from conditioned medium on M2 (anti-FLAG) gel; not shown: FLAG, N-terminal, kept
- binding result [2]: binds
